Results taken from PMC3567257 (Biochemistry, 2012).
Residue numbers refer to the chain shown, from its start. No end group written: not given here. *: point of attachment. 5FAM = O=C1OC2(c3ccc(O)cc3Oc3cc(O)ccc32)c2ccc(C(=O)*)cc21

T1: (HQ)5-HaloTag-JARID1A PHD3 (UniProt P29375 1601-1660)
T1 sequence (looked up): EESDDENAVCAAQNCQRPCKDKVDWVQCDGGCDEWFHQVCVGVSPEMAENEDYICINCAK

T2: (HQ)5-HaloTag-JMJD2A double tudor domain (UniProt O75164 895-1011)
T2 sequence (looked up): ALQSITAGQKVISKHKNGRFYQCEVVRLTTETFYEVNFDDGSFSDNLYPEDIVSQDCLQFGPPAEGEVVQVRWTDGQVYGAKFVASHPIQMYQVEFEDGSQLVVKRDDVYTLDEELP

T3: (HQ)5-HaloTag-AIRE PHD1 (UniProt O43918 293-354)
T3 sequence (looked up): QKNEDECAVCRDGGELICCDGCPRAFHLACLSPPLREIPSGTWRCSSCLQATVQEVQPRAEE

T4: H3(1-19)K9me3K19fluo (UniProt P68431 2-20, trimethyl-lysine at position 9; fluorescein on lysine 19 (K19fluo))
T4 chain: ARTKQTARKSTGGKAPRKK

T5: GST-JARID1A PHD3 D1624N (UniProt P29375 1601-1660, D1624N)
T5 sequence (looked up): T1 sequence (looked up) with D24N

T6: GST-JARID1A PHD3 D1629N (UniProt P29375 1601-1660, D1629N)
T6 sequence (looked up): T1 sequence (looked up) with D29N

T7: GST-JARID1A PHD3 D1629A (UniProt P29375 1601-1660, D1629A)
T7 sequence (looked up): T1 sequence (looked up) with D29A

T8: GST-JARID1A PHD3 D1624A (UniProt P29375 1601-1660, D1624A)
T8 sequence (looked up): T1 sequence (looked up) with D24A

B1: GST-JMJD2A DTD (domain or fragment, UniProt O75164 895-1011, looked up)
chain: T2 sequence (looked up)
B2: GST-BHC80 PHD (domain or fragment, UniProt Q96BD5 486-543, looked up)
chain: IHEDFCSVCRKSGQLLMCDTCSRVYHLDCLDPPLKTIPKGMWICPRCQDQMLKKEEAI
B3: GST-AIRE PHD1 (domain or fragment, UniProt O43918 293-354, looked up)
chain: T3 sequence (looked up)
B4: GST-RAG2 PHD (domain or fragment, UniProt P21784 414-487, looked up)
chain: GYWITCCPTCDVDINTWVPFYSTELNKPAMIYCSHGDGHWVHAQCMDLEERTLIHLSEGSNKYYCNEHVQIARA
B5: GST-UHRF1 TTD (domain or fragment)
chain: MWDETELGLYKVNEYVDARDTNMGAWFEAQVVRVTRKAPSRDEPCSSTSRPALEEDVIYHVKYDDYPENGVVQMNSRDVRARARTIIKWQDLEVGQVVMLNYNPDNPKERGFWYDAEISRKRETRTARELYANVVLGDDSLNDCRIIFVDEVFKIERPGE
B6: GST-JARID1A PHD3 (domain or fragment, UniProt P29375 1601-1660, looked up)
chain: T1 sequence (looked up)
B7: H3(1-14)K4unmodifiedK14fluo (peptide, UniProt P68431 2-15, looked up)
peptide: ARTKQTARKSTGGK(5FAM)
B8: H3(1-14)K4me3K14fluo (peptide, UniProt P68431 2-15, looked up)
peptide: ARTKQTARKSTGGK
modifications: trimethyl-lysine at position 4; 5-carboxyfluorescein on lysine 14

Tests used:
[1] = biological target: B8; test: fluorescence polarisation
[2] = biological target: T1, (HQ)5-HaloTag-JARID1A PHD3; test: HaloTag plate binding assay
[3] = biological target: T1, (HQ)5-HaloTag-JARID1A PHD3; test: pull-down
[4] = biological target: B7; test: fluorescence polarisation
[5] = biological target: T2, (HQ)5-HaloTag-JMJD2A double tudor domain; test: HaloTag plate binding assay
[6] = biological target: (HQ)5-HaloTag-BHC80 PHD (UniProt Q96BD5 486-543)
[7] = biological target: T3, (HQ)5-HaloTag-AIRE PHD1; test: HaloTag plate binding assay
[8] = biological target: T4, H3(1-19)K9me3K19fluo; test: fluorescence polarisation
[9] = biological target: B6; test: fluorescence polarisation
[10] = biological target: T5, GST-JARID1A PHD3 D1624N; test: fluorescence polarisation
[11] = biological target: T6, GST-JARID1A PHD3 D1629N; test: fluorescence polarisation
[12] = biological target: T7, GST-JARID1A PHD3 D1629A; test: fluorescence polarisation
[13] = biological target: T8, GST-JARID1A PHD3 D1624A; test: fluorescence polarisation

## B1
[1]
  protein concentration at 90% fraction bound: 4 µM

## ARTKQTARKSTW (Kme3 (trimethyl-lysine) at position 4) [unlabeled (no biotin) histone H3 (1-11) K4me3 peptide]
[2]
  IC50: 2970 ± 350 nM
[3]
  IC50: 13.6 ± 4.5 µM

## B2
[4]
  protein concentration at 90% fraction bound: 60 µM

## B3
[4]
  protein concentration at 90% fraction bound: 4 µM

## B4
[1]
  protein concentration at 90% fraction bound: 25 µM

## ARTKQTARKSTEW (Kme3 (trimethyl-lysine) at position 4; E(PEG-biotin) at position 12) [biotinylated histone H3 (1-11) peptide trimethylated at lysine 4]
[5]
  binding result: binds

## ARTKQTARKSTEW (E(PEG-biotin) at position 12) [biotinylated histone H3 (1-11) peptide, unmethylated]
[6]
  Kd: > 15 µM
[7]
  binding result: binds

## B5
[8]
  protein concentration at 90% fraction bound: 18 µM

## B6
[1]
  protein concentration at 90% fraction bound: 1 µM

## B7
[9]
  Kd: 9.35 ± 1.57 µM

## B8
[9]
  Kd: 0.294 ± 0.046 µM
[10]
  Kd: 634 ± 80 nM
[11]
  Kd: 3.81 ± 0.551 µM
[12]
  Kd: 4.05 ± 0.691 µM
[13]
  Kd: 1150 ± 145 nM
